Reference: patent publication US20230220042A1 (SHANGHAI JIAO TONG UNIVERSITY SCHOOL OF MEDICINE, published 2023)
Changes are numbered by the printed parent chain. Numbers in names are those of the source.

T1: Biotin-FcγRIIB (human FcγRIIB, Sino Biological) (human, UniProt P31994 43-217, limits assumed, biotin-labeled)
T1 construct: Used at 1 µg/ml with Streptavidin-APC for flow cytometry and sorting; also called CD32b
T1 sequence (looked up): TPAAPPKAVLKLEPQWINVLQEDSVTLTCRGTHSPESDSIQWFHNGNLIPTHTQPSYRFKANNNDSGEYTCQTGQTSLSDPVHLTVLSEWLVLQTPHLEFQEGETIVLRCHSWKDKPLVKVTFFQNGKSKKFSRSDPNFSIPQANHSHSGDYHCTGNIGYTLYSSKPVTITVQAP

B1: human IgG2 anti-mouse CD40 surface displayed antibody, H268D (antibody, name in EU numbering)
light chain (with the P2A rest): DTVLTQSPALAVSPGERVTISCRASDSVSTLMHWYQQKPGQQPKLLIYLASHLESGVPARFSGSGSGTDFTLTIDPVEADDTATYYCQQSWNDPWTFGGGTKLELKRTVAAPSVFIFPPSDEQLKSGTASVVCLLNNFYPREAKVQWKVDNALQSGNSQESVTEQDSKDSTYSLSSTLTLSKADYEKHKVYACEVTHQGLSSPVTKSFNRGECGSGATNFSLLKQAGDVEENPG
heavy chain: EVQLVESDGGLVQPGRSLKLPCAASGFTFSDYYMAWVRQAPTKGLEWVASISYDGSSTYYRDSVKGRFTISRDNAKSTLYLQMDSLRSEDTATYYCGRHSSYFDYWGQGVMVTVSSASTKGPSVFPLAPCSRSTSESTAALGCLVKDYFPEPVTVSWNSGALTSGVHTFPAVLQSSGLYSLSSVVTVPSSNFGTQTYTCNVDHKPSNTKVDKTVERKCCVECPPCPAPPVAGPSVFLFPPKPKDTLMISRTPEVTCVVVDVSDEDPEVQFNWYVDGVEVHNAKTKPREEQFNSTFRVVSVLTVVHQDWLNGKEYKCKVSNKGLPAPIEKTISKTKGQPREPQVYTLPPSREEMTKNQVSLTCLVKGFYPSDIAVEWESNGQPENNYKTTPPMLDSDGSFFLYSKLTVDKSRWQQGNVFSCSVMHEALHNHYTQKSLSLSPGKLEPPPSTVSNMATVAVLVVLGAAIVTGAVVAFVMKMRRRNTGGKGGDYALAPGSQTSDLSLPDCKVMVHDPHSLA
notes: m1 with this Fc mutation (Eu numbering); copies: 2 + 2
B2: human IgG2 anti-mouse CD40 surface displayed antibody, H268E (antibody, name in EU numbering)
light chain (with the P2A rest): B1 light chain (with the P2A rest)
heavy chain: B1 heavy chain with D263E
notes: as for B1
B3: human IgG2 anti-mouse CD40 surface displayed antibody, H268K (antibody, name in EU numbering)
light chain (with the P2A rest): B1 light chain (with the P2A rest)
heavy chain: B1 heavy chain with D263K
notes: as for B1
B4: human IgG2 anti-mouse CD40 surface displayed antibody, P271C (antibody, name in EU numbering)
light chain (with the P2A rest): B1 light chain (with the P2A rest)
heavy chain: B1 heavy chain with D263H, P266C
notes: as for B1
B5: human IgG2 anti-mouse CD40 surface displayed antibody, S267A (antibody, name in EU numbering)
light chain (with the P2A rest): B1 light chain (with the P2A rest)
heavy chain: B1 heavy chain with S262A, D263H
notes: as for B1
B6: human IgG2 anti-mouse CD40 surface displayed antibody, S267A/P271C (antibody, name in EU numbering)
light chain (with the P2A rest): B1 light chain (with the P2A rest)
heavy chain: B1 heavy chain with S262A, D263H, P266C
notes: m1 with these Fc mutations (Eu numbering); copies: 2 + 2
B7: human IgG2 anti-mouse CD40 surface displayed antibody, S267A/P271G (antibody, name in EU numbering)
light chain (with the P2A rest): B1 light chain (with the P2A rest)
heavy chain: B1 heavy chain with S262A, D263H, P266G
notes: as for B6
B8: human IgG2 anti-mouse CD40 surface displayed antibody, S267D (antibody, name in EU numbering)
light chain (with the P2A rest): B1 light chain (with the P2A rest)
heavy chain: B1 heavy chain with S262D, D263H
notes: as for B1
B9: human IgG2 anti-mouse CD40 surface displayed antibody, S267E/D270H (antibody, name in EU numbering)
light chain (with the P2A rest): B1 light chain (with the P2A rest)
heavy chain: B1 heavy chain with S262E, D263H, D265H
notes: as for B6
B10: human IgG2 anti-mouse CD40 surface displayed antibody, S267E/P271C (antibody, name in EU numbering)
light chain (with the P2A rest): B1 light chain (with the P2A rest)
heavy chain: B1 heavy chain with S262E, D263H, P266C
notes: as for B6

Molecular target: T1, Biotin-FcγRIIB (human FcγRIIB, Sino …)
Assay: NGS after FACS sort of 3T3-displayed Library2 for biotin-FcγRIIB binding

Binder	Enrichment factor (percentage after sorting/percentage before sorting)	Increased factor (enrichment factor/wild-type enrichment factor)
B1	1.54	2.68
B2	1.69	2.94
B3	1.32	2.31
B4	17.1	29.9
B5	3.17	5.52
B6	37.4	65.1
B7	5.27	9.19
B8	2.11	3.67
B9	42.7	74.3
B10	1000	1740
